According to patent US20220169732A1 (BIOND BIOLOGICS, published 2022):
Where no end group is shown, it is not given here.

Molecular target: T1, BSA conjugated CD28 stalk region dimeric peptide (also: dimer through the cysteine, BSA conjugated via C-terminal Lys by hydrazide chemistry)
T1 peptide: GKHLCPSPLFPGPSKPK
Experiment: ELISA

B1: antibody M9 (antibody, V domains shown)
VH: DVKLVESGGGLVKLGGSLKLSCVASGFTFSSYYMSWVRQTPEKRLEWVATISDGGDNTYYAGTVTGRFTISRDFAKNTLYLQMNSLTSEDTAVYYCARIHWPYYFDSWGQGTTLTVSS
VL: QFVLSQSPAILSASPGEMLTMTCRASSSVSYMNWYQQKPGSSPKPWIYATSDLASGVPARFSGSGSGTSYSLTISRVEAEDAATYYCQQWSSHPPTFGGGTKLEIR
notes: Full-size mouse antibody raised in CD1 mice against the dimeric stalk peptide; detected with anti mouse IgG; also called clone M9; anti-cleavage antibody M9
B1 gave an IC50 of 9 ng/mL.
